For this experiment, the target named is T1, GST-E1 (HPV 11 E1 fused to GST) (human papillomavirus type 11, UniProt P04014 1-649).
T1 sequence: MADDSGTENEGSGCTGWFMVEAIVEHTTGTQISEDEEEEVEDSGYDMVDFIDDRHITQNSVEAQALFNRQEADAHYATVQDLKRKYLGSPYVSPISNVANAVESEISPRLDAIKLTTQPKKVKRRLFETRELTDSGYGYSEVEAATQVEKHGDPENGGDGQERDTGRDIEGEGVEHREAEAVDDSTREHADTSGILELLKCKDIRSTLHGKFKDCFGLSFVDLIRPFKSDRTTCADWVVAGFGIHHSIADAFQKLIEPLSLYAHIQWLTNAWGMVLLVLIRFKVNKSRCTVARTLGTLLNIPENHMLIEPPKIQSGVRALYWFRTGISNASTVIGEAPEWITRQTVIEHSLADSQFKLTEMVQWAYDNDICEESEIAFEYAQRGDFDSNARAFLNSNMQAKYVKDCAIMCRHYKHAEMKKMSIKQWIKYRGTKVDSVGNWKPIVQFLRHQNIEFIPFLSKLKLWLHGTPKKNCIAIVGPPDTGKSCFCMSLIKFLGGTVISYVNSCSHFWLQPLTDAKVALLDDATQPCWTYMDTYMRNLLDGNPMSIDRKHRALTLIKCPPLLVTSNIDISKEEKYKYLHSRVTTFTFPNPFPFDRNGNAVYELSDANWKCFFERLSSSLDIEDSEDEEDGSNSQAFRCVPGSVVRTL
The experiment can be described thus: far-Western, overlay or dot blot.

Results on one molecule are retold here after publication PMC5758917 (Nucleic Acids Research, 2017).

B1: p50 subunit of pol δ (natural protein)
chain: not shown
As for B1, the binding result is listed as “binds”.
